The experiment has as its target Echo 6 virus full particle (strain SJZ-366) (Echovirus 6 strain SJZ-366). Kind of experiment: SPR. A general note: Surface plasmon resonance follows binding to a sensor surface in real time, without labels.

Consider “Human FcRn soluble protein (FCGRT extracellular domain + β2 m) (from UniProt P61769 21-119) (complex)”, for which the equilibrium dissociation constant (Kd) (as a rule, the constant that tells how readily two partners part at equilibrium) was 242 nM. On to “Human CD55 soluble protein (extracellular domain) (from UniProt P08174-1 35-285) (domain or fragment)”, for which the Kd was determined as 375 nM.

These data come from paper PMC7111318.
